Results as given in US20260265340A1 (CUROGEN TECHNOLOGY, published 2026).

Molecular target: T1, human TNFα (human, UniProt P01375 77-233)
T1 construct: also called hTNFα
Test: ELISA, cytokine coated on the plate; the text value differs from the table cell 43.8
Procedure: The wells were then blocked with ELISA TBS buffer containing 5% BSA at 100 μl/well and incubated at room temperature for 1 hour, followed by three washes with ELISA TBS buffer (200 μl/well). […] After three washes with ELISA TBS buffer (200 μl/well), HRP-conjugated secondary antibody (Abcam, Cat. Ab98624) was applied and incubated at room temperature for 1 hour.

T1 sequence (P01375 77-233 limits assumed): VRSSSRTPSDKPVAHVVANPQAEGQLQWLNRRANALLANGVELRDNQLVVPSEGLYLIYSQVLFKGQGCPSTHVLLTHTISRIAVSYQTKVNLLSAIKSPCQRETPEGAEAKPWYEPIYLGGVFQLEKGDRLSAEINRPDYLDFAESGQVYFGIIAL

EC50: 0.0431 µg/mL
B1: IL-17RA/RC-Fc-TNFR2 fusion protein T1-T4-14 (Fc fusion)
chain: LRLLDHRAPVCSQPGLNCTVKNSDCLDDSWIHPRNLTPSSPKDLQIQLHFAHTQQGDLVPVAHIEWTLQTDASILYLEGAELSVLQLDTNERLCVRFEFLSKLRHHHRRWRFTFSHFVVDPGQEYEVTVHHLPKPIPDGDPNHQSKNFLVPDCEHPRMKVTTPCMSSALPWLNVSADGDNVHLVLNVSEEQHFGLSLYWNQVQGPPKPRWHKNLTGPQIITLNHTDLVPCLCIQVWPLEPDSVRTNICPFREDPRAHQNLWQAARLRLLTLQSWLLDAPCSLPAEAALCWRAPGGDPCQPLVPPLSWENVTVDKVLEFPLLKGHPNLCVQVNSSEKLQLQECLWADSLGPLKDDVLLLETRGPQDNRSLCALEPSGCTSLPSKASTRAARLGEYLLQDLQSGQCLQLWDDDLGALWACPMDKYIHKTGIEGRMDRNTGRGGEEKKKEKEKEEQEERETKTPECPSHTQPLGVFLFPPKPKDTLMISRTPEVTCVVVDVSQEDPEVQFNWYVDGVEVHNAKTKPREEQFNSTYRVVSVLTVLHQDWLNGKEYKCKVSNKGLPSSIEKTISKAKGQPREPQVYTLPPSQEEMTKNQVSLTCLVKGFYPSDIAVEWESNGQPENNYKTTPPVLDSDGSFFLYSRLTVDKSRWQEGNVFSCSVMHEALHNHYTQKSLSLSLGKGGGGSGGGGSGGGGSLELPAQVAFTPYAPEPGSTCRLREYYDQTAQMCCAKCPPGQHAKVFCTKTSDTVCDSCEDSTYTQLWNWVPECLSCSSRCSSDQVETQACTREQNRICTCRPGWYCALSKQEGCRLCAPLSKCRPGFGVARPGTETSDVVCKPCAPGTFSNTTSSTDICRPHQICSVVAIPGNASMDAVCTSTSPTRSMAPGAVHLPQPVSTRSQHTQPTPGPSTAPSTSILLPMGPSPPAEGSTGD
notes: Structure T1c-Fc-T4g; also called T1c-Fc-T4g; IL-17RA/RC-Fc-TNFR2 (T1-T4-14)
